Measurements from the supplement of paper PMC9112550, “Optimization of the antimicrobial peptide Bac7 by deep mutational scanning” (BMC Biology, 2022).

Tested on: Escherichia coli TOP10
Test: shrunken log2 fold change of peptide-encoding DNA abundance (4.5 h post-induction vs induction); higher = less antimicrobial activity (less host growth inhibition)
Settings: time post-induction: 4.5 h; library: site-saturation at positions 5, 18, 19, 20
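Also: peptides expressed intracellularly from a pBAD plasmid library in pooled LB shake-flask culture, induced with 0.3% L-arabinose, DNA abundance read by NGS, three biological replicates, DESeq2 with apeglm shrinkage.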

| Sequence | shrunken log2 fold change |
| --- | --- |
| RRIRVRPPRLPRPRPRPGHDPRP | -0.116 |
| RRIRMRPPRLPRPRPRPDCIPRP | 1.76 |
| RRIRERPPRLPRPRPRPMHQPRP | -0.452 |
| RRIRGRPPRLPRPRPRPMVHPRP | -0.0529 |
| RRIRGRPPRLPRPRPRPSACPRP | 1.5 |
| RRIRIRPPRLPRPRPRPQKMPRP | -0.269 |
| RRIRDRPPRLPRPRPRPYNEPRP | -0.0252 |
| RRIRLRPPRLPRPRPRPNHKPRP | -0.335 |
| RRIRRRPPRLPRPRPRPQLIPRP | -0.0726 |
| RRIRHRPPRLPRPRPRPACLPRP | -0.221 |
| RRIRVRPPRLPRPRPRPMSYPRP | -0.0627 |
| RRIRIRPPRLPRPRPRPVNMPRP | -0.103 |
| RRIRCRPPRLPRPRPRPSCEPRP | -0.493 |
| RRIRCRPPRLPRPRPRPINPPRP | -0.00918 |
| RRIRARPPRLPRPRPRPACIPRP | 0.171 |
| RRIRSRPPRLPRPRPRPWVHPRP | -0.221 |
| RRIRKRPPRLPRPRPRPWSTPRP | 0.0277 |
| RRIRWRPPRLPRPRPRPPYIPRP | -0.3 |
| RRIRLRPPRLPRPRPRPSEVPRP | -0.396 |
| RRIRCRPPRLPRPRPRPPVSPRP | 0.134 |
| RRIRWRPPRLPRPRPRPNENPRP | -0.0342 |
| RRIRLRPPRLPRPRPRPQFNPRP | -0.57 |
| RRIRGRPPRLPRPRPRPVWVPRP | 0.509 |
| RRIRRRPPRLPRPRPRPQHWPRP | 0.179 |
| RRIRDRPPRLPRPRPRPFFEPRP | 0.219 |

| Sequence | shrunken log2 fold change |
| --- | --- |
| RRIRNRPPRLPRPRPRPLSDPRP | -0.0613 |
| RRIRVRPPRLPRPRPRPHEEPRP | 0.0138 |
| RRIRHRPPRLPRPRPRPFPIPRP | 0.0165 |
| RRIRCRPPRLPRPRPRPPFYPRP | -0.0226 |
| RRIRMRPPRLPRPRPRPLRSPRP | 2.47 |
| RRIRFRPPRLPRPRPRPEKLPRP | -0.0722 |
| RRIRTRPPRLPRPRPRPDKIPRP | -0.172 |
| RRIRPRPPRLPRPRPRPRMMPRP | 0.323 |
| RRIRKRPPRLPRPRPRPKCNPRP | -0.0341 |
| RRIRCRPPRLPRPRPRPWPAPRP | 0.375 |
| RRIRFRPPRLPRPRPRPAIYPRP | -0.999 |
| RRIRLRPPRLPRPRPRPEDEPRP | 0.00911 |
| RRIRIRPPRLPRPRPRPPCWPRP | 0.836 |
| RRIRERPPRLPRPRPRPVWHPRP | -0.154 |
| RRIRGRPPRLPRPRPRPFGRPRP | -0.0748 |
| RRIRYRPPRLPRPRPRPWSFPRP | -0.522 |
| RRIRFRPPRLPRPRPRPQPRPRP | 0.541 |
| RRIRFRPPRLPRPRPRPTRNPRP | 0.184 |
| RRIRSRPPRLPRPRPRPYRSPRP | -0.47 |
| RRIRKRPPRLPRPRPRPIPPPRP | 0.385 |
| RRIRGRPPRLPRPRPRPDAWPRP | 1.17 |
| RRIRDRPPRLPRPRPRPLTYPRP | -0.339 |
| RRIRERPPRLPRPRPRPVKLPRP | -0.0426 |
| RRIRVRPPRLPRPRPRPMWDPRP | -0.101 |
| RRIRARPPRLPRPRPRPLHHPRP | -0.0724 |

| Sequence | shrunken log2 fold change |
| --- | --- |
| RRIRRRPPRLPRPRPRPRQMPRP | 0.313 |
| RRIRYRPPRLPRPRPRPFQNPRP | -0.0769 |
| RRIRERPPRLPRPRPRPNMQPRP | -0.664 |
| RRIRQRPPRLPRPRPRPIVLPRP | -0.132 |
| RRIRNRPPRLPRPRPRPSEEPRP | 0.0717 |
| RRIRWRPPRLPRPRPRPAPVPRP | 0.433 |
| RRIRNRPPRLPRPRPRPMFNPRP | -0.868 |
| RRIRSRPPRLPRPRPRPELHPRP | 0.249 |
| RRIRRRPPRLPRPRPRPDGYPRP | -0.0109 |
| RRIRHRPPRLPRPRPRPRPPPRP | 1.15 |
| RRIRKRPPRLPRPRPRPALRPRP | 0.455 |
| RRIRGRPPRLPRPRPRPPNNPRP | 0.835 |
| RRIRERPPRLPRPRPRPRHGPRP | -0.467 |
| RRIRNRPPRLPRPRPRPDHIPRP | 0.00647 |
| RRIRPRPPRLPRPRPRPVFNPRP | -0.344 |
| RRIRNRPPRLPRPRPRPTPKPRP | 0.222 |
| RRIRARPPRLPRPRPRPMQTPRP | 0.114 |
| RRIRFRPPRLPRPRPRPAKLPRP | -0.263 |
| RRIRGRPPRLPRPRPRPENPPRP | 0.842 |
| RRIRSRPPRLPRPRPRPPHQPRP | 0.27 |
| RRIRWRPPRLPRPRPRPYCQPRP | -0.694 |
| RRIRGRPPRLPRPRPRPSSFPRP | 0.406 |
| RRIRNRPPRLPRPRPRPVNIPRP | -0.435 |
| RRIRFRPPRLPRPRPRPRVSPRP | -0.102 |
| RRIRGRPPRLPRPRPRPDSQPRP | 0.223 |

| Sequence | shrunken log2 fold change |
| --- | --- |
| RRIRIRPPRLPRPRPRPYPKPRP | -0.0684 |
| RRIRMRPPRLPRPRPRPLPRPRP | 2.48 |
| RRIRSRPPRLPRPRPRPTNKPRP | -0.328 |
| RRIRPRPPRLPRPRPRPVRRPRP | 0.418 |
| RRIRGRPPRLPRPRPRPPGAPRP | 1.51 |
| RRIRIRPPRLPRPRPRPFIGPRP | -0.227 |
| RRIRGRPPRLPRPRPRPYEIPRP | -0.132 |
| RRIRSRPPRLPRPRPRPGRMPRP | 0.167 |
| RRIRQRPPRLPRPRPRPCFFPRP | -0.101 |
| RRIRRRPPRLPRPRPRPFHHPRP | -0.0883 |
| RRIRDRPPRLPRPRPRPNYFPRP | -0.0536 |
| RRIRSRPPRLPRPRPRPAVGPRP | 0.391 |
| RRIRMRPPRLPRPRPRPWDGPRP | 0.0785 |
| RRIRIRPPRLPRPRPRPYVQPRP | -0.311 |
| RRIRDRPPRLPRPRPRPNKWPRP | -0.0744 |
| RRIRLRPPRLPRPRPRPVICPRP | -0.16 |
| RRIRCRPPRLPRPRPRPILIPRP | 1.28 |
| RRIRVRPPRLPRPRPRPNLPPRP | 0.232 |
| RRIRKRPPRLPRPRPRPNGFPRP | 0.49 |
| RRIRDRPPRLPRPRPRPSWSPRP | -0.369 |
| RRIRKRPPRLPRPRPRPWNMPRP | -0.181 |
| RRIRPRPPRLPRPRPRPRREPRP | 0.187 |
| RRIRARPPRLPRPRPRPIDFPRP | 0.125 |
| RRIRFRPPRLPRPRPRPEMVPRP | -0.143 |
| RRIRTRPPRLPRPRPRPGWQPRP | 0.174 |

| Sequence | shrunken log2 fold change |
| --- | --- |
| RRIRSRPPRLPRPRPRPFKIPRP | -0.466 |
| RRIRPRPPRLPRPRPRPQLDPRP | 0.314 |
| RRIRKRPPRLPRPRPRPRHPPRP | 0.412 |
| RRIRERPPRLPRPRPRPKTGPRP | -0.0863 |
| RRIRHRPPRLPRPRPRPALKPRP | -0.322 |
| RRIRKRPPRLPRPRPRPLMLPRP | 0.007 |
| RRIRERPPRLPRPRPRPYPMPRP | -0.172 |
| RRIRARPPRLPRPRPRPECLPRP | 0.909 |
| RRIRGRPPRLPRPRPRPHWLPRP | 0.14 |
| RRIRHRPPRLPRPRPRPSMMPRP | -0.407 |
| RRIRHRPPRLPRPRPRPCNKPRP | -0.395 |
| RRIRSRPPRLPRPRPRPQYMPRP | -0.695 |
| RRIRHRPPRLPRPRPRPKYSPRP | -0.489 |
| RRIRMRPPRLPRPRPRPGYLPRP | 0.0963 |
| RRIRVRPPRLPRPRPRPAVSPRP | 0.0786 |
| RRIRNRPPRLPRPRPRPHRTPRP | -0.827 |
| RRIRNRPPRLPRPRPRPKEMPRP | -0.0529 |
| RRIRARPPRLPRPRPRPHKMPRP | 0.118 |
| RRIRRRPPRLPRPRPRPFGFPRP | 0.197 |
| RRIRHRPPRLPRPRPRPQDFPRP | 0.0261 |
| RRIRMRPPRLPRPRPRPNESPRP | 0.923 |
| RRIRKRPPRLPRPRPRPFWIPRP | -0.414 |
| RRIRIRPPRLPRPRPRPRLDPRP | 0.1 |
| RRIRQRPPRLPRPRPRPSAFPRP | -0.247 |
| RRIRARPPRLPRPRPRPCDVPRP | 0.212 |

| Sequence | shrunken log2 fold change |
| --- | --- |
| RRIRLRPPRLPRPRPRPMYIPRP | -0.172 |
| RRIRNRPPRLPRPRPRPPSAPRP | 0.726 |
| RRIRFRPPRLPRPRPRPKCLPRP | 0.049 |
| RRIRERPPRLPRPRPRPKVAPRP | 0.0804 |
| RRIRTRPPRLPRPRPRPYWQPRP | -0.435 |
| RRIRNRPPRLPRPRPRPDVGPRP | -0.251 |
| RRIRMRPPRLPRPRPRPQYAPRP | 0.0122 |
| RRIRPRPPRLPRPRPRPKSIPRP | -0.352 |
| RRIRSRPPRLPRPRPRPSDRPRP | -0.254 |
| RRIRSRPPRLPRPRPRPYWTPRP | -0.141 |
| RRIRPRPPRLPRPRPRPGDFPRP | -0.0208 |
| RRIRERPPRLPRPRPRPKCIPRP | -0.464 |
| RRIRVRPPRLPRPRPRPPPVPRP | 0.767 |
| RRIRKRPPRLPRPRPRPEMRPRP | 0.105 |
| RRIRSRPPRLPRPRPRPLSYPRP | -0.464 |
| RRIRLRPPRLPRPRPRPSSNPRP | -0.211 |
| RRIRNRPPRLPRPRPRPKFCPRP | -0.198 |
| RRIRPRPPRLPRPRPRPAVPPRP | 0.1 |
| RRIRYRPPRLPRPRPRPHRHPRP | -0.615 |
| RRIRSRPPRLPRPRPRPSTMPRP | -0.455 |
| RRIRNRPPRLPRPRPRPNMLPRP | -0.772 |
| RRIRMRPPRLPRPRPRPYMWPRP | -0.38 |
| RRIRCRPPRLPRPRPRPAKHPRP | -0.23 |
| RRIRVRPPRLPRPRPRPCPHPRP | -0.0391 |
| RRIRVRPPRLPRPRPRPFCKPRP | -0.144 |
